In patent US6344321, “Nucleic acid ligands which bind to hepatocyte growth factor/scatter factor (HGF/SF) or its receptor c-met” (Gilead Sciences, Inc.):

Biological target: HGF (hepatocyte growth factor/scatter factor) (UniProt P14210;P14210 P14210:32-494,P14210:495-728)
Assay: filter; HBSMC, 37C
Conditions: tags: R&D Systems
Protocol: In binding reactions, RNA concentrations were kept as low as possible—between 1 and 20 pM—to ensure equilibrium in conditions of protein excess. Oligonucleotides were incubated for 15 minutes at 37° C. with varying amounts of the protein in 43 µl of the binding buffer. Thirty-two microliters of each binding mixture placed on pre-wet 0.45 µm nitrocellulose filters under suction. Each well was immediately washed with 0.5 ml binding buffer. The amount of radioactivity retained on the filters was quantitated by imaging. The radioactivity that bound to filters in the absence of protein was used for background correction. The percentage of input oligonucleotide retained on each filter spot was plotted against the corresponding log protein concentration. The nonlinear least square method was used to obtain the dissociation constant (K_d; reference Jellinek, Lynott et al. 1993, Proc. Natl. Acad. Sci. USA. 90:11227–31).

Chain of HGF (hepatocyte growth factor/scatter factor) (P14210 32-494, chain 1 of 2): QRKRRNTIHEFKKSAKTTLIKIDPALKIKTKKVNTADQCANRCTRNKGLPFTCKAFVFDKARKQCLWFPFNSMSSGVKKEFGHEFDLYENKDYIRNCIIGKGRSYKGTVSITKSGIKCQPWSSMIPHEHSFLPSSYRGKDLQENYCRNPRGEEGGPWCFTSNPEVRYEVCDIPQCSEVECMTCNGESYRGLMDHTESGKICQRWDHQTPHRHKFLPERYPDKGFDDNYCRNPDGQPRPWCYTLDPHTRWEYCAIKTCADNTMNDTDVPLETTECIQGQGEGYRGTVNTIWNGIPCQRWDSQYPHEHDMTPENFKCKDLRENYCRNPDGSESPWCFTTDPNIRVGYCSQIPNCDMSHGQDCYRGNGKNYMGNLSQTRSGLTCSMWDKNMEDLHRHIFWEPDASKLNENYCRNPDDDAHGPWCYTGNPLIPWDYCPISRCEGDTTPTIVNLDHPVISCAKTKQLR
Chain of HGF (hepatocyte growth factor/scatter factor) (P14210 495-728, chain 2 of 2): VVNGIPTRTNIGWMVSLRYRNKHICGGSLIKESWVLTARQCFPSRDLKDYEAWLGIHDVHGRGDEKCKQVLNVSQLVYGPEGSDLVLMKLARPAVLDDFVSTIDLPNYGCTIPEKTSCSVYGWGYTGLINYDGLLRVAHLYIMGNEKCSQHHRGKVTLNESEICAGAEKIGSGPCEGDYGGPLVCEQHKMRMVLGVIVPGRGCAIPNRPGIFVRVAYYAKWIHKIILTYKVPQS

Binder	Kd [nM]
10-2 (ssRNA, 2'-F pyrimidines) RNA: GGGAGAUAAGAAUAAACGCUCAAGCCUGAGUUAAACAUGACGGUUUGUGACCCUUCGACAGGAGGCUCACAACAGGC	0.069
10-23 (ssRNA, 2'-F pyrimidines) RNA: GGGAGAUAAGAAUAAACGCUCAAGUCUGAGUUGGACACAACGCAUUGAGACCCUUCGACAGGAGGCUCACAACAGGC	0.33
10-28 (ssRNA, 2'-F pyrimidines) RNA: GGGAGAUAAGAAUAAACGCUCAACCUGUUCUGAACGCAAAAUGGCGUGGUGGCUUCGACAGGAGGCUCACAACAGGC	0.86
10-52 (ssRNA, 2'-F pyrimidines) RNA: GGGAGAUAAGAAUAAACGCUCAAUCUUAUUGUGUCCAGCUUCUCCCUGCAGGCUUCGACAGGAGGCUCACAACAGGC	0.16
10-7 (ssRNA, 2'-F pyrimidines) RNA: GGGAGAUAAGAAUAAACGCUCAAUGCCUUAAGAGCGGAACUCCCUGACCCACCUUCGACAGGAGGCUCACAACAGGC	1.45
10-40 (ssRNA, 2'-F pyrimidines) RNA: GGGAGAUAAGAAUAAACGCUCAAUGUCGUUAGUUUAUUGACAAGGCCCGAAGUUCGACAGGAGGCUCACAACAGGC	0.35
10-16 (ssRNA, 2'-F pyrimidines) RNA: GGGAGAUAAGAAUAAACGCUCAAUACAGCGUGUUGGUCCCGGACGGGGACUUAUUUCGACAGGAGGCUCACAACAGGC	0.21
10-53 (ssRNA, 2'-F pyrimidines) RNA: GGGAGAUAAGAAUAAACGCUCAAGGCCUCCAACCGCUAAAGGUUCCAUUCUUGUUCGACAGGAGGCUCACAACAGGC	0.31
10-49 (ssRNA, 2'-F pyrimidines) RNA: GGGAGAUAAGAAUAAACGCUCAACCCGACCUCCUGUAACUGGUUGAGGCACUAUUCGACAGGAGGCUCACAACAGGC	0.24
10-47 (ssRNA, 2'-F pyrimidines) RNA: GGGAGAUAAGAAUAAACGCUCAAGUCAAGAGGAAAUGACACGGCUCCACUUUUAUUCGACAGGAGGCUCACAACAGGC	0.39
10-18 (ssRNA, 2'-F pyrimidines) RNA: GGGAGAUAAGAAUAAACGCUCAACGUGAUUCCUACCAUCAGGUACCUAUCUUGUUCGACAGGAGGCUCACAACAGGC	0.3
10-1 (ssRNA, 2'-F pyrimidines) RNA: GGGAGAUAAGAAUAAACGCUCAAAGUGAUGUGAGAGCGUGCCUCUAGUCGGUGUUCGACAGGAGGCUCACAACAGGC	0.094
10-11 (ssRNA, 2'-F pyrimidines) RNA: GGGAGAUAAGAAUAAACGCUCAACGCCUGGACCGUUUGUUUAUCCCCGUAGUCUUCGACAGGAGGCUCACAACAGGC	0.61
10-36 (ssRNA, 2'-F pyrimidines) RNA: GGGAGAUAAGAAUAAACGCUCAACGUUAGCAUCUGAACGAUGCCCAGCCUCAAUUCGACAGGAGGCUCACAACAGGC	1.94
10-57 (ssRNA, 2'-F pyrimidines) RNA: GGGAGAUAAGAAUAAACGCUCAACGAGCCUCCUACCGUUUAGGUACCAUCUUGUUCGACAGGAGGCUCACAACAGGC	0.14
10-62 (ssRNA, 2'-F pyrimidines) RNA: GGGAGAUAAGAAUAAACGCUCAAGUUAGACUCAACAUGAGUCCCAGCCUCAAUUCGACAGGAGGCUCACAACAGGC	0.44
10-29 (ssRNA, 2'-F pyrimidines) RNA: GGGAGAUAAGAAUAAACGCUCAAUCUGUUGGCGUCGUUCUCCUGACCCUCCUCUUCGACAGGAGGCUCACAACAGGC	1.75

Binder	Kd [nM]
8-203 (ssRNA, 2'-F pyrimidines) RNA: GGGAGGACGAUGCGGCGCGAGCCUAUUUAUGUCAUCAUGUCUGUGCAGACGACUCGCCCGA	0.14
8-222 (ssRNA, 2'-F pyrimidines) RNA: GGGAGGACGAUGCGGUGUGAACCUAUUUAUGCCAUUAUGUCUGUGCAGACGACUCGCCCGA	0.13
8-215 (ssRNA, 2'-F pyrimidines) RNA: GGGAGGACGAUGCGGCGUGAGCCUAUUUAUGUCAUCAUGUCUGGUCAGACGACUCGCCCGA	0.077
10-37 (ssRNA, 2'-F pyrimidines) RNA: GGGAGAUAAGAAUAAACGCUCAAGUCUGAGUCCGUAGGGCGAUUUGUGUCCCUUCGACAGGAGGCUCACAACAGGC	3.05
10-48 (ssRNA, 2'-F pyrimidines) RNA: GGGAGAUAAGAAUAAACGCUCAAGAGUUCCCUGUUGACUCGCUCUCCUGACCCUUCGACAGGAGGCUCACAACAGGC	0.31
10-31 (ssRNA, 2'-F pyrimidines) RNA: GGGAGAUAAGAAUAAACGCUCAAGGGUUCCUGAUUGACCCUGUCUCUAGACCCUUCGACAGGAGGCUCACAACAGGC	1.9
10-72 (ssRNA, 2'-F pyrimidines) RNA: GGGAGAUAAGAAUAAACGCUCAAUGUGGCACUGUUGUCCACAAGGGCCUCAUUCGACAGGAGGCUCACAACAGGC	0.45
8-160 (ssRNA, 2'-F pyrimidines) RNA: GGGAGGACGAUGCGGGUCCCCGAAUUUAAAGUGCGUUUUCCUCCGGGCAGACGACUCGCCCGA	0.15
11-224 (ssRNA, 2'-F pyrimidines) RNA: GGGAGGACGAUGCGGACAGCGGCGACUAGCCUGUUCAUGCCUGCCCAGACGACUCGCCCGA	0.11
10-8 (ssRNA, 2'-F pyrimidines) RNA: GGGAGAUAAGAAUAAACGCUCAAUUGACAAGGUACCUGUUGCCUGGCGUUUCUUUCGACAGGAGGCUCACAACAGGC	0.92
10-13 (ssRNA, 2'-F pyrimidines) RNA: GGGAGAUAAGAAUAAACGCUCAAGAUCUGUUGGCGUGUCUACCCGACCCUCCUUUCGACAGGAGGCUCACAACAGGC	0.72
10-27 (ssRNA, 2'-F pyrimidines) RNA: GGGAGAUAAGAAUAAACGCUCAAUUAGCCUCCGACCGUAAGGUCCUUUUCUUGUUCGACAGGAGGCUCACAACAGGC	0.83
10-76 (ssRNA, 2'-F pyrimidines) RNA: GGGAGAUAAGAAUAAACGCUCAAAGUUAGGCUUUAAAGCACGAUAAUCAGCAUUCGACAGGAGGCUCACAACAGGC	0.17
11-107 (ssRNA, 2'-F pyrimidines) RNA: GGGAGGACGAUGCGGGUUCUGUGUGUCCACGUUCUUACCCCUGUGCAGACGACUCGCCCGA	0.14
11-203 (ssRNA, 2'-F pyrimidines) RNA: GGGAGGACGAUGCGGGGUUUUUCUUUUCUUGUUCUCUUCUUUCCCCCAGACGACUCGCCCGA	0.26
10-3 (ssRNA, 2'-F pyrimidines) RNA: GGGAGAUAAGAAUAAACGCUCAAGCCUGAGUUAAACAUGACGGGUUUUGUGACCCCUUUCGACAGGAGGCUCACAACAGGC	0.072
